{"source": "patent US20020155995A1", "about": "(published 2002)", "binders": {"B1": {"name": "human haptoglobin Hp(2-2), non-complexed (other, UniProt P00738 19-406, looked up)", "chain": "VDSGNDVTDIADDGCPKPPEIAHGYVEHSVRYQCKNYYKLRTEGDGVYTLNDKKQWINKAVGDKLPECEADDGCPKPPEIAHGYVEHSVRYQCKNYYKLRTEGDGVYTLNNEKQWINKAVGDKLPECEAVCGKPKNPANPVQRILGGHLDAKGSFPWQAKMVSHHNLTTGATLINEQWLLTTAKNLFLNHSENATAKDIAPTLTLYVGKKQLVEIEKVVLHPNYSQVDIGLIKLKQKVSVNERVMPICLPSKDYAEVGRVGYVSGWGRNANFKFTDHLKYVMLPVADQDQCIRHYEGSTVPEKKTPKSPVGVQPILNEHTFCAGMSKYQEDTCYGDAGSAFAVHDLEEDTWYATGILSFDKSCAVAEYGVYVKVTSIQDWVQKTIAEN", "notes": "mature; From Sigma; mixture of multimers; also called Hp(2-2) multimers"}}, "target": "T1, human CD163, ligand-affinity purified from Triton X-100 solubilised human spleen, placenta and liver membranes (human, UniProt Q86VB7 42-1156)", "T1 construct": "mature; Natural receptor purified from tissue membranes on Hp-Hb Sepharose; immobilised on BIAcore CM5 chips or in microtiter wells; also called HbSR; Hp-Hb receptor", "T1 sequence (Q86VB7 42-1156)": "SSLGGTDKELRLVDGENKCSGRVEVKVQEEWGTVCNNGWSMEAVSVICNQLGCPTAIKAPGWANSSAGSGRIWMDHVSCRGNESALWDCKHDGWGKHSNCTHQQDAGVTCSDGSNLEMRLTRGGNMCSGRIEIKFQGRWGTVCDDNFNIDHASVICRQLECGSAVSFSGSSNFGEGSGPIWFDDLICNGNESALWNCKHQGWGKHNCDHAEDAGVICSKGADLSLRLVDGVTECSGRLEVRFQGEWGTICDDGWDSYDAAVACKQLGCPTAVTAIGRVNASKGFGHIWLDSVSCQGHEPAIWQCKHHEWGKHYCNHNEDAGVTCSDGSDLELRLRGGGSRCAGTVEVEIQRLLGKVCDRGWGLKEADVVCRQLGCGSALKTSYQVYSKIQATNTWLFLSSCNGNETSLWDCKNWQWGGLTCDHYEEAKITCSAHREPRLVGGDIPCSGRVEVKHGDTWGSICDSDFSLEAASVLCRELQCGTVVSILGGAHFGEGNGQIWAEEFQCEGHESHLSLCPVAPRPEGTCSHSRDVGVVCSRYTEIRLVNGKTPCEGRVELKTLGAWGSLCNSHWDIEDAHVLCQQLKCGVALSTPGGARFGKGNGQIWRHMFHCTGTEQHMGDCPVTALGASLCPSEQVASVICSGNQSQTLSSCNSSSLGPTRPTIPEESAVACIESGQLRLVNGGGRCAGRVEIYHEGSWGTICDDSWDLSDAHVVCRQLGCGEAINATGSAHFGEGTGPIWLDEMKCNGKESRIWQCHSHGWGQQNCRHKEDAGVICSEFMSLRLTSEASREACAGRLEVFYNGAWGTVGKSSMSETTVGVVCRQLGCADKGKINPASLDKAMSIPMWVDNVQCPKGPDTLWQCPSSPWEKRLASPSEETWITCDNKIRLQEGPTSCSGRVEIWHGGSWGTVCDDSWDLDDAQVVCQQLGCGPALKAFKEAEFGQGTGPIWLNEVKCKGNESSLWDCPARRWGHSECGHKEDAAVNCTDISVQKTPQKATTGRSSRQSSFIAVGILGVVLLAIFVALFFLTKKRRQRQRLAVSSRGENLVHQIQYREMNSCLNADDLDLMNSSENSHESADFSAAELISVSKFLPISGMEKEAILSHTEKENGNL", "experiment": "SPR, CD163 immobilised on CM5 chip", "method": "Purified CD163 was immobilised at the BIAcore sensor CM5 chip (BIAcore AB) at a concentration of up to 50 μg/ml in 10 mM sodium acetate, pH 4.0, and the remaining binding sites were blocked with 1 M ethanolamine pH 8.5. The surface plasmon resonance signal generated from immobilised CD163 corresponded to 55-66 fmol receptor/mm². The sample and flow buffer was 10 mM Hepes, 150 mM NaCl, 0.5 mM CaCl₂, pH 7.4. The sensor chips were regenerated with 1.6 M glycine-HCl, pH 3."}
{"binder": "B1", "values": [{"measurement": "binding result", "result": "no binding (tested: 50 µg/ml Hp(2-2))"}]}
